Key:
[1] = target: T1, ROR1-ECD (transmembrane receptor tyrosine kinase ROR1, extracellular domain) (human, UniProt Q01973 30-406, biotin (BirA biotinylation; captured on streptavidin chip)); experiment: SPR; Biacore T100; biotinylated ligand captured on a streptavidin (SA) Series S chip (~100-200 RU); non-biotinylated analyte in twofold dilutions in HBS-P+; 60 s injection at 30 ul/min, 240 s dissociation; regeneration 2 x 10 sec 2M MgCl2; KD from the fit at equilibrium (steady state); conditions: both partners purified
T1 construct: receptor tyrosine kinase ROR1, human, extracellular domain; source: Expi293F, purified (Ni-NTA, SEC), biotinylated in vitro with BirA

[2] = target: T2, MFRP-ECD (membrane Frizzled-related protein, extracellular domain) (human, UniProt Q9BY79 91-579, biotin (BirA biotinylation; captured on streptavidin chip)); experiment: as above; conditions: both partners purified
T2 construct: membrane Frizzled-related protein (MFRP), human, extracellular domain; source: Expi293F, purified (Ni-NTA, SEC), biotinylated in vitro with BirA
T2 sequence (looked up): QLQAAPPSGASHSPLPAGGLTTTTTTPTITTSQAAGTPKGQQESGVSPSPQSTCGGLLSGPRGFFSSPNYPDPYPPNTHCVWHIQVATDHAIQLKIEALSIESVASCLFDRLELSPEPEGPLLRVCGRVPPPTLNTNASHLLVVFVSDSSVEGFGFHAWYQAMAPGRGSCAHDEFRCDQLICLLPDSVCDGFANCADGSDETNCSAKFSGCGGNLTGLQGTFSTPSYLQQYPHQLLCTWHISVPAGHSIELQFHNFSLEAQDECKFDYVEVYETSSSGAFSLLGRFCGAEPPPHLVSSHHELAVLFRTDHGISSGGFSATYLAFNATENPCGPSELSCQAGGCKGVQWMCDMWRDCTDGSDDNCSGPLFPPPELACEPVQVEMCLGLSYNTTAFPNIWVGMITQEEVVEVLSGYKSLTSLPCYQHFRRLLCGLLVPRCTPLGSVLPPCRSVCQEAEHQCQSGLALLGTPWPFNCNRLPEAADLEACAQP

Kd [1]: 1660 nM | Kd [2]: 1220 nM
B1: pleiotrophin (PTN) (ligand, human, UniProt P21246 33-168, looked up)
chain: GKKEKPEKKVKKSDCGEWQWSVCVPTSGDCGLGTREGTRTGAECKQTMKTQRCKIPCNWKKQFGAECKYQFQAWGECDLNTALKTRTGSLKRALHNAECQKTVTISKPCGKLTKPKPQAESKKKKKEGKKQEKMLD
notes: pleiotrophin (PTN), human; source: Expi293F, purified (Ni-NTA, SEC), not biotinylated (SPR analyte)

— article PMC9578707, “Identification of orphan ligand-receptor relationships using a cell-based CRISPRa enrichment screening platform” (eLife, 2022)
